Measurements reported in article PMC7305164.

Molecular target: Sso7d(W24A/R43E)-HTLV-1 IN(E156Q) (HTLV-1)
Experiment: cryo-EM structure; SEC-purified HTLV-1 intasome (strand-transfer complex) of Sso7d-IN(E156Q), B56γ(11–380) and branched viral U5 LTR/target DNA; 3.7 Å, C2 symmetry imposed

“Sso7d(W24A/R43E)-HTLV-1 IN(E156Q) (enzyme)” was tested. Which stoichiometry N did it give?
Its stoichiometry N is 4.
